Measured values taken from US20240294650A1 (Alector, published 2024).

T1: endogenous murine MerTK on bone marrow-derived macrophages (mouse, UniProt Q60805 19-994)
T1 construct: whole, on cells; MFI on MerTK KO BMDM subtracted; also called BMDM WT-KO
T1 sequence (looked up): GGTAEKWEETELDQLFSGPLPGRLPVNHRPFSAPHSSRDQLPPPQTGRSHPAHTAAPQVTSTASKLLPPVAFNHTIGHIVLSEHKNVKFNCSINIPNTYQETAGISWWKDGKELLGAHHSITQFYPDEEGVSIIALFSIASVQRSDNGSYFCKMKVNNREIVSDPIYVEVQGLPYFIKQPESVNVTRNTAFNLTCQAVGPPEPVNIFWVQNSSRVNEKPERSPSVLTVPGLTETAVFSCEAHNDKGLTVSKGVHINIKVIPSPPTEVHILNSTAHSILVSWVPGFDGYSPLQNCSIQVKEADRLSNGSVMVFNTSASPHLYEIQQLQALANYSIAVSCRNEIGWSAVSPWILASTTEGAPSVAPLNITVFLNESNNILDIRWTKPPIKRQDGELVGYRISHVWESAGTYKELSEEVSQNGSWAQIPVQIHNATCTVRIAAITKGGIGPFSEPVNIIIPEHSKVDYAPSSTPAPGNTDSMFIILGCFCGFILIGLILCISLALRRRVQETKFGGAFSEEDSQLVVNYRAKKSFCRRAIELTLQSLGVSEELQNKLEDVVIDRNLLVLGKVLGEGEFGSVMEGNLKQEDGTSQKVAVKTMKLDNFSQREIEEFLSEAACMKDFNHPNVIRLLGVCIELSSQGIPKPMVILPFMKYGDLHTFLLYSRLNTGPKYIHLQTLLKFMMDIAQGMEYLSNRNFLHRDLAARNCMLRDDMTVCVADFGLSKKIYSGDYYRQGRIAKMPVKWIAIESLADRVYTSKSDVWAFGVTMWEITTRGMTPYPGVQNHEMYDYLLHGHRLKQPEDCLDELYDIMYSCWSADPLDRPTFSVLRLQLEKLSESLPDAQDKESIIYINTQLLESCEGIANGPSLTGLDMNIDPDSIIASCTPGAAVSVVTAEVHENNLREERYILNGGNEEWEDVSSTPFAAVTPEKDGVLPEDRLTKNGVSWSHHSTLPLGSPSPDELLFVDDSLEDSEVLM

T2: Recombinant human MerTK-human Fc Chimera protein (human, UniProt Q12866 26-499, limits assumed)
T2 construct: bought construct; also called MerTK-Fc (R&D systems, Cat #391-MR-100)
T2 sequence: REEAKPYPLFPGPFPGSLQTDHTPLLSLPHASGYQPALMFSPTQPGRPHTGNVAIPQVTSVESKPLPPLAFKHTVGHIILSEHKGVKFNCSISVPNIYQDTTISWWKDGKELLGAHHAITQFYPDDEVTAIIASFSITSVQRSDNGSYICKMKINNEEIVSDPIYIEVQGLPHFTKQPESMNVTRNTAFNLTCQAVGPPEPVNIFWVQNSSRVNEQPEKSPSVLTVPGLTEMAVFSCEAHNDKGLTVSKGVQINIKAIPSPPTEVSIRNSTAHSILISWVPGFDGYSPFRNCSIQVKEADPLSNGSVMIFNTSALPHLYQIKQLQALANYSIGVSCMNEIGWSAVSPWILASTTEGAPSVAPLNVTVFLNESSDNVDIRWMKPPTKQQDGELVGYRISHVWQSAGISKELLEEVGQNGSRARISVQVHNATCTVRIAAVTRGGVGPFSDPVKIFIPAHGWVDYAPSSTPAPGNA

T3: mouse MerTK overexpressed on CHO cells (mouse, UniProt Q60805 19-994)
T3 construct: whole, on cells; also called CHO-muMerTK OE
T3 sequence (looked up): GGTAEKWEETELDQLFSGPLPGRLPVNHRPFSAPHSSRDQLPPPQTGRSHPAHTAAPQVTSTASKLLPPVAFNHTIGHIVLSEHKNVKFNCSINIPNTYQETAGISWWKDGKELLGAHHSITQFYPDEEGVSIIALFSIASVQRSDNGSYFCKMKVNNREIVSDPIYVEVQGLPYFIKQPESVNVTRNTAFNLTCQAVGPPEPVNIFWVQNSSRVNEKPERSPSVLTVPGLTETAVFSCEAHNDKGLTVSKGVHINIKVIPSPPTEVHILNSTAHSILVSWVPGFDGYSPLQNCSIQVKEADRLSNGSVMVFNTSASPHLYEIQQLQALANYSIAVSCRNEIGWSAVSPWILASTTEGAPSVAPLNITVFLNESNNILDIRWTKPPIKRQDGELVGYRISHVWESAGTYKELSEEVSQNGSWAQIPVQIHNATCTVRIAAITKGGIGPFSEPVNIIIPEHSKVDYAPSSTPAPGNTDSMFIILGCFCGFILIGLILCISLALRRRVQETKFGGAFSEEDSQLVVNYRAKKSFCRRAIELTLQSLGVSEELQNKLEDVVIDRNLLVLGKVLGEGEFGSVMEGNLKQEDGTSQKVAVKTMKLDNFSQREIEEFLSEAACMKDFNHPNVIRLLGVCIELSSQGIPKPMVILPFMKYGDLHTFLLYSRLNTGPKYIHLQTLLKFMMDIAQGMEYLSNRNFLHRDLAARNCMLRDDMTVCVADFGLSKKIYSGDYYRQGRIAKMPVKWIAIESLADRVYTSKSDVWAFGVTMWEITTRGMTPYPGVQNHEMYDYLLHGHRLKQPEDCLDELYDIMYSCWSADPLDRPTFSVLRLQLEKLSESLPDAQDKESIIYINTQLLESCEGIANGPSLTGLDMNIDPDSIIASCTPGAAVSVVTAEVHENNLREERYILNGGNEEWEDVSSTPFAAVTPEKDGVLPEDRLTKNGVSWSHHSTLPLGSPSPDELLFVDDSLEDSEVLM


Tests used:
[1] = molecular target: T1, endogenous murine MerTK on bone …; test: FACS, mouse BMDM, WT minus MerTK KO
Outline: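 MFI from flow cytometry, reported as WT minus KO, after antibody (10 μg/ml, 60 min on ice) and PE goat anti-human IgG (30 min on ice, Fc block present). Macrophages came from WT and MerTK-knockout mouse marrow cultured seven days in 50 ng/ml M-CSF.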

[2] = molecular target: T2, Recombinant human MerTK-human Fc …; test: blocking ELISA, Gas6-His on MerTK-Fc, Ab 66.6 nM, isotype=100%
Description: Briefly, rabbit anti-human IgG antibody (Jackson ImmunoResearch, Cat #309-005-008) was coated at 2 μg/ml onto high-protein binding plates at 4° C. overnight. After washing with 0.05% Tween20 in PBS three times, 5% BSA in PBS was added for 1 hour. Recombinant human MerTK-human Fe Chimera protein (R&D systems, Cat #391-MR-100) was added at 2 μg/ml for 1 hour and plates were washed before the addition of 40 μl of anti-MerTK hybridoma supernatants and 40 μl of His tag-conjugated recombinant Gas6 (R&D systems, Cat #885-GSB-050) at 3 μg/ml or His tag-conjugated recombinant ProS (R&D systems, Cat #9489-PS-100) at 20 μg/ml. After a further incubation for 1 hour, plates were washed and incubated for 1 hour with HRP-conjugated anti-6×His tagged antibody (Abcam, Cambridge, MA, Cat #ab1187). Plates were then washed and an HRP substrate, TMB, was added to develop the plates. The reaction was stopped by adding 50 μl 2N H₂SO₄ and the OD was measured using a spectrophotometer (BioTek).
Anti-MerTK antibodies were titrated to a final concentration from 66.6 nM to 4 pM and tested against anti-human MerTK antibody M6 (disclosed in WO2016/106221) or isotype control antibody.

[3] = molecular target: T3, mouse MerTK overexpressed on CHO cells; test: FACS, CHO-muMerTK OE cells, 10 ug/ml
Outline: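 Cells were plated at 100,000 per well, exposed to antibody (10 μg/ml) on ice for 60 minutes, washed, and labelled with a PE anti-human IgG secondary in Fc block for 30 minutes on ice. Mean fluorescence intensity was then measured by flow cytometry.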

Binder	MFI [1]	Percent Gas6 ligand binding [2]	MFI [3]
MTK-202 (antibody, human IgG1, V domains shown) VH: EVQLVESGGGLVKPGGSLKLSCAASGFTFSDFGMHWVRQVPEKGLEWVAFISGGSNTIYYTDTVKGRFTISRDNAKNTLFLQMTSLRSEDTAMYYCVRNGNSFAYWGQGTLVTVSA VL: NIMMTQSPSSLAVSAGEKVTMNCKSSQSVLYSSNQKNYLAWYQQKPGQSPKLLIYWASTRESGVPDRFTGSGSGTDFTLTISNIQAEDLAIYYCHQYFFSWTFGGGTKLEIK	4510 MFI	101%	4410 MFI
MTK-204 (antibody, human IgG1, V domains shown) VH: EVQLVESGGGLVKPGGSLKLSCAASGFTFSDYGMHWVRQAPEKGLEWVAYISSGTSTIYYEDTVKGRFTISRDNAKNTLFLQMTSLRSEDTAMYYCARGGLLFDYWGQGTTLTVSS VL: NIMMTQSPSSLAVSAGEKVTMSCKSSQSVLYSSNQKNYLAWYQQKPGQSPKLLIQWASTRESGVPDRFTGSGSETDFTLTIRSVQAEDLAVYYCHQYFSSWTFGGGTKLEIK	602 MFI	121%	713 MFI
MTK-212 (antibody, human IgG1, V domains shown) VH: QVQLQQSGPELVKPGASVKISCKASGYAFSSSWVNWVKQRPGKGLEWIGRIYPGDGDSNYNGNFKGKATLTADKSSNTAYLQLSSLTSEDSAVYFCARKSHFIYYTLDYWGQGTPVTVSS VL: DIVMTQSHKFKSTSVGDRVSIACKASQDVGTSVAWYQQKPGKSPKLLIYWASSRHTGVPDRFTGSGSGTDFTLTISNVQSEDLTDYFCQQYSTYPYTFGGGTKLEIK	9090 MFI	122%	12800 MFI
MTK-231 (antibody, human IgG1, V domains shown) VH: DVQLQESGPGLVKPSQSLSLTCSVTGYSITSGYYWNWIRQFPGNKLEWMGYISYDGTYNYHPSLKNRISITRDTSKNQFFLTLNSVTTEDTATFYCTRGGGYWGQGTSVTVSS VL: DVVMTQTPLSLPVSLGDQASISCRSSQSLVHSDGNTYLHWYLQKPGQSPKLLIYKVSNRFSGVPDRFSGSGSGTDFTLKISRLEAEDLGIYFCSQTTHIPLTFGSGTKLEIK	639 MFI	116%	594 MFI

The remaining lines, values ahead:

MFI [1]	Percent Gas6 ligand binding [2]	MFI [3]	Binder
619 MFI	120%	285 MFI	MTK-225 (antibody, human IgG1, V domains shown) VH: EVQLQQSGPELVKPGASVKIFCKASGYTFTAYNMDWVKQSHGKSLEWIGDINPNNGGTIYNQKFKGKATLTVDKSSSTAYMELRSLTSEDTAVYYCARRRRYGNTYYWYFDVWGTGTTVTVSS VL: DIQMTQSPASLSVSVGETVTITCRASENIYSSLAWYQQKQGKSPQLLVYAATNLADGVPSRFSGSGSGTQFYLKINGLQSEDFGSYYCQHFWGTSYTFGGGTKLEIK
989 MFI	116%	279 MFI	MTK-207 (antibody, human IgG1, V domains shown) VH: QVQLKESGPGLVAPSQSLSITCTVSGISLTSYGVSWVRQPPGKGLEWLGIIWGDGSTNYHSALISRLSISKDNSKSQVFLKLNSLQTDDTATYYCAKGRYGNYEDWYFDVWGTGTTVTVSS VL: DIQMTQSPASLSASVGETVTITCRASGNIHNYLAWYQQKQGKSPQLLVYNAKTLAAGVPSRFSGSGSGTQYSLKINSLQPEDFGSYYCQHFWSIPLTFGAGTKLELK
